Test results taken from US7109317.

Target: endogenous calcineurin (human) (UniProt P63098)
Assay: cell-based or functional assay

Chain of FKBP12 (P62942 2-108 limits assumed): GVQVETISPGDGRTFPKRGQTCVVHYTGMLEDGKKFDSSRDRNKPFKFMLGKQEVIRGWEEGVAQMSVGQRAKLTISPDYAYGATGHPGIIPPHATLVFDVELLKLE
Chain of endogenous calcineurin (human) (P63098 2-170): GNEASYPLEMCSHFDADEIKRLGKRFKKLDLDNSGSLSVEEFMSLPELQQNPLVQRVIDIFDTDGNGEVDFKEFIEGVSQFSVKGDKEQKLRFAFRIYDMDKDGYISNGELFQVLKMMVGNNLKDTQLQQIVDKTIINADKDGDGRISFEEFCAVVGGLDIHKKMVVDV

FKBP12 (from UniProt P62942 2-108)
suppression of PMA/ionomycin-induced activation of an NFAT-SEAP reporter, C40-phenyl-FK506 against FK506: 30 fold
